Measured values reported in patent EP2574667A1, “Enzyme variants” (Technische Universität Graz, priority 2011, dated 2013).

Key:
O=C(O)C(=O)Cc1ccccc1 [1] = assay: Steady state kinetics by O2 depletion, HMS variant Y359A; format: biochemical, Streptomyces coelicolor A3 (2); conditions: other: Table 3, apparent, air saturation, pH 7.5, 25.0 °C
Method: (§1) Dioxygen consumption was continuously monitored using a micro-optode O2 sensor (Microtox TX3-AOT, Presens GmbH,Regensburg, Germany). Assays were generally performed at 25°C in air saturated 20 mM Tris/HCl buffer, pH 7.5 with enzyme concentrations of approx. 20 µM. To start the reaction, substrate aliquots were added from 5 mM stock solutions of the respective substrate to the desired end-concentration in a total volume of 500 µL. Initial rates were determined by linear regression analysis using the initial, linear part of the O2 depletion curve. O2 consumption rates from blanks that contained substrate in the absence of enzyme were subtracted as necessary. Specific activities were obtained by relating measured rates of O2 depletion to the protein derived Fe(II) content in the assay.
(§2) Kinetic analysis was performed via measuring O2 depletion. Kinetic parameters are apparent, as measurements were performed at air saturation. Product analysis was performed via HPLC (method is outlined in Appendix B) and confirmed via GC-MS. It could be shown that the enzyme converts phenylpyruvate analogues as a whole cell system, when a substrate analogue (e.g. p-F-phenylpyruvate) was added to cultures of E.coli BL21 cells overexpressing HMS variant S221M_V223M_Y359A. The overexpression was induced with IPTG as described in Material and Methods. […]

O=C(O)C(=O)Cc1ccccc1 [2] = assay: Steady state kinetics by O2 depletion, HMS variant S221M; format: biochemical, Streptomyces coelicolor A3 (2); conditions: other: Table 3, apparent, air saturation, pH 7.5, 25.0 °C
Method: as §1, §2

O=C(O)C(=O)Cc1ccccc1 [3] = assay: Steady state kinetics by O2 depletion, HMS variant V223F; format: biochemical, Streptomyces coelicolor A3 (2); conditions: other: Table 3, apparent, air saturation, pH 7.5, 25.0 °C
Method: as §1, §2

O=C(O)C(=O)Cc1ccccc1 [4] = assay: Steady state kinetics by O2 depletion, HMS variant V223W; format: biochemical, Streptomyces coelicolor A3 (2); conditions: other: Table 3, apparent, air saturation, pH 7.5, 25.0 °C
Method: as §1, §2

O=C(O)C(=O)Cc1ccccc1 [5] = assay: Steady state kinetics by O2 depletion, HMS variant S221M_Y359A; format: biochemical, Streptomyces coelicolor A3 (2); conditions: other: Table 3, apparent, air saturation, pH 7.5, 25.0 °C
Method: as §1, §2

O=C(O)C(=O)Cc1ccccc1 [6] = assay: Steady state kinetics by O2 depletion, HMS variant V223M; format: biochemical, Streptomyces coelicolor A3 (2); conditions: other: Table 3, apparent, air saturation, pH 7.5, 25.0 °C
Method: as §1, §2

[7] = target: T1, 4-hydroxymandelate synthase (Hms, HMS) from Streptomyces coelicolor A3 (2), wild type, SEQ ID No. 1 (Streptomyces coelicolor, UniProt Q9Z4X7); conditions: Table 2; apparent, air saturation (260 µM dioxygen), Tris buffer 20 mM pH 7.5, 25°C
T1 sequence (Q9Z4X7 1-371): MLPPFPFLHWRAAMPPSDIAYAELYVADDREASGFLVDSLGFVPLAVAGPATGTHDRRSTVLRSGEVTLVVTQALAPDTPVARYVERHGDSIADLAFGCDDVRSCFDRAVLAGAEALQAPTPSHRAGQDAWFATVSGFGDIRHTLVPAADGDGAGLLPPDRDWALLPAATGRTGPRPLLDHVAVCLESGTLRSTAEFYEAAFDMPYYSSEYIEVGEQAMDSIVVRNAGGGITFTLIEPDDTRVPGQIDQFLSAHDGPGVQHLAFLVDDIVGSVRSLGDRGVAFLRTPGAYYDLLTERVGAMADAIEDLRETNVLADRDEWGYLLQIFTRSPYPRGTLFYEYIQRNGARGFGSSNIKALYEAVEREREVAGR
Method: (§3) The reactivity of HMS towards a range of aromatic oxo-acids was assessed, whereby the impact of substituents in the para-position of the aromatic ring regarding electronic structure and size was probed. […] Where activities were high enough to allow a steady state kinetic analysis, specific activities (kcat) and Michaelis Menten constants (Km) were determined (the assays were performed at air saturation (=260µM dioxygen concentration, therefore all kinetic constants are apparent)). […] Reactions were performed in Tris buffer (20 mM, pH 7.5), at 25°C at air saturation.

O=C(O)C(=O)Cc1ccccc1 [8] = assay: Steady state kinetics by O2 depletion, HMS variant V223F Y359A; format: biochemical, Streptomyces coelicolor A3 (2); conditions: other: Table 3, apparent, air saturation, pH 7.5, 25.0 °C
Method: as §1, §2

O=C(O)C(=O)Cc1ccccc1 [9] = assay: Steady state kinetics by O2 depletion, HMS variant I236F; format: biochemical, Streptomyces coelicolor A3 (2); conditions: other: Table 3, apparent, air saturation, pH 7.5, 25.0 °C
Method: as §1, §2

[10] = substrate: Cc1ccc(CC(=O)C(=O)O)cc1; assay: purified protein, by the assay type; conditions: other: Table 2, apparent, air saturation (260 µM dioxygen), Tris buffer 20 mM pH 7.5, 25°C
Method: as §3

[11] = substrate: O=C(O)C(=O)Cc1ccc([N+](=O)[O-])cc1; assay: purified protein, by the assay type; conditions: other: Table 2, apparent, air saturation (260 µM dioxygen), Tris buffer 20 mM pH 7.5, 25°C
Method: as §3

[12] = substrate: O=C(O)C(=O)Cc1ccccc1; assay: purified protein, by the assay type; conditions: other: Table 3; apparent, air saturation, O2 depletion; pH 7.5; 25.0 °C
[13] = substrate: COc1ccc(CC(=O)C(=O)O)cc1; assay: purified protein, by the assay type; conditions: other: Table 2, apparent, air saturation (260 µM dioxygen), Tris buffer 20 mM pH 7.5, 25°C
Method: as §3

[14] = substrate: O=C(O)C(=O)Cc1ccc(F)cc1; assay: purified protein, by the assay type; conditions: other: Table 2, apparent, air saturation (260 µM dioxygen), Tris buffer 20 mM pH 7.5, 25°C
Method: as §3

In the case of “4-hydroxymandelate synthase (HMS) from Streptomyces coelicolor A3 (2), variant Y359A, SEQ ID No. 5 (Streptomyces coelicolor A3(2); Y359A)”, the Km (O=C(O)C(=O)Cc1ccccc1 [1]) is reported as 270 µM and the kcat (O=C(O)C(=O)Cc1ccccc1 [1]) is reported as 4.8 s⁻¹.

Molecule “4-hydroxymandelate synthase (HMS) from Streptomyces coelicolor A3 (2), variant S221M, SEQ ID No. 6 (Streptomyces coelicolor A3(2); S221M)” has a Km (O=C(O)C(=O)Cc1ccccc1 [2]) of 330 µM and a kcat (O=C(O)C(=O)Cc1ccccc1 [2]) of 1.9 s⁻¹.

Work on “4-hydroxymandelate synthase (HMS) from Streptomyces coelicolor A3 (2), variant V223F, SEQ ID No. 2 (Streptomyces coelicolor A3(2); V223F)” yielded a Km (O=C(O)C(=O)Cc1ccccc1 [3]) of 27 µM and a kcat (O=C(O)C(=O)Cc1ccccc1 [3]) of 1.1 s⁻¹.

“4-hydroxymandelate synthase (HMS) from Streptomyces coelicolor A3 (2), variant V223W, SEQ ID No. 3 (Streptomyces coelicolor A3(2); V223W)” was tested, and the Km (O=C(O)C(=O)Cc1ccccc1 [4]) was 230 µM and the kcat (O=C(O)C(=O)Cc1ccccc1 [4]) was 0.5 s⁻¹.

With “4-hydroxymandelate synthase (HMS) from Streptomyces coelicolor A3 (2), variant S221M_Y359A, SEQ ID No. 8 (Streptomyces coelicolor A3(2); S221M/Y359A)” the Km (O=C(O)C(=O)Cc1ccccc1 [5]) was 240 µM and the kcat (O=C(O)C(=O)Cc1ccccc1 [5]) was 1.1 s⁻¹.

For “4-hydroxymandelate synthase (HMS) from Streptomyces coelicolor A3 (2), variant V223M, SEQ ID No. 4 (Streptomyces coelicolor A3(2); V223M)”, the Km (O=C(O)C(=O)Cc1ccccc1 [6]) was 230 µM and the kcat (O=C(O)C(=O)Cc1ccccc1 [6]) was 1.9 s⁻¹.

For `COc1ccc(CC(=O)C(=O)[O-])cc1.[Na+]`, the kcat [7] was 0.96 ± 0.12 s⁻¹.

In the case of “4-hydroxymandelate synthase (HMS) from Streptomyces coelicolor A3 (2), variant V223F Y359A (V223F_Y359A), SEQ ID No. 7 (Streptomyces coelicolor A3(2); V223F/Y359A)”, the Km (O=C(O)C(=O)Cc1ccccc1 [8]) is reported as 1000 µM and the kcat (O=C(O)C(=O)Cc1ccccc1 [8]) is reported as 2.1 s⁻¹.

“4-hydroxymandelate synthase (HMS) from Streptomyces coelicolor A3 (2), variant I236F (Streptomyces coelicolor A3(2); I236F)” was tested, and the Km (O=C(O)C(=O)Cc1ccccc1 [9]) was 2000 µM and the kcat (O=C(O)C(=O)Cc1ccccc1 [9]) was 0.9 s⁻¹.

B1: 4-hydroxymandelate synthase (Hms, HMS) from Streptomyces coelicolor A3 (2), wild type, SEQ ID No. 1 (Streptomyces coelicolor A3(2)) (protein)
chain: MLPPFPFLHWRAAMPPSDIAYAELYVADDREASGFLVDSLGFVPLAVAGPATGTHDRRSTVLRSGEVTLVVTQALAPDTPVARYVERHGDSIADLAFGCDDVRSCFDRAVLAGAEALQAPTPSHRAGQDAWFATVSGFGDIRHTLVPAADGDGAGLLPPDRDWALLPAATGRTGPRPLLDHVAVCLESGTLRSTAEFYEAAFDMPYYSSEYIEVGEQAMDSIVVRNAGGGITFTLIEPDDTRVPGQIDQFLSAHDGPGVQHLAFLVDDIVGSVRSLGDRGVAFLRTPGAYYDLLTERVGAMADAIEDLRETNVLADRDEWGYLLQIFTRSPYPRGTLFYEYIQRNGARGFGSSNIKALYEAVEREREVAGR
Work on B1 yielded a kcat [10] of 0.13 ± 0.02 s⁻¹, a kcat [11] of 0.035 ± 0.007 s⁻¹ and a Km [12] of 350 µM. It also gave a kcat [12] of 0.9 s⁻¹, a Km [13] of 160 ± 70 µM and a kcat [14] of 0.077 ± 0.004 s⁻¹.
